Measurements reported in the RNAGym collection of RNA variant scans (doi:10.7554/elife.90254).

B1: OR4K15 (parent)
chain: GUUAACGGUCAUAGGCCAUGGAAACUAGGAGCACCAUUUCGCUGCCAGUGAAGAAAUGAACAAAGAAAAUCUGGGCCAGGCAGGCAUCAAAAGAAAUAGUCUUGCGCUCAACCAGAAAGUCUGUAAUCAUUUUAAGGGUA

Variants of: B1
Assay: self-cleavage, relative activity (ratio to wild type); higher = more cleavage; in vitro, sequencing; the parent is a self-cleaving ribozyme

Variant | self-cleavage
GUUAACGGUCAUAGGCCAUGGAAACUAGGAGCACCAUUUCGCUGCCAGUGAAGAAAUGAACAAAGAAAAUCUGGGCCAGGCAGGCAUCAAAAGAAAUAGUCUUGCGCUCAACCAGAAAGUCUGUAAUCAUUAUAAGGGUU [U132A A140U] | 0.14
GUUAACGGUCAUAGGCCAUGGAAACUAGGAGCACCAUUUCGCUGCCAGUGAAGAAAUGAACAAAGAAAAUCUGGGCCAGGCAGGCAUCAAAAGAAAUAGUCUUGCGCUCAACCAGAAAGUCUGUAAUCAUUCUAAGGGUA [U132C] | 1.05
GUUAACGGUCAUAGGCCAUGGAAACUAGGAGCACCAUUUCGCUGCCAGUGAAGAAAUGAACAAAGAAAAUCUGGGCCAGGCAGGCAUCAAAAGAAAUAGUCUUGCGCUCAACCAGAAAGUCUGUAAUCAUUAUAAGGGUA [U132A] | 1.53
GUUAACGGUCAUAGGCCAUGGAAACUAGGAGCACCAUUUCGCUGCCAGUGAAGAAAUGAACAAAGAAAAUCUGGGCCAGGCAGGCAUCAAAAGAAAUAGUCUUGCGCUCAACCAGAAAGUCUGUAAUCAUUAUAAGGGCA [U132A U139C] | 1.56
GUUAACGGUCAUAGGCCAUGGAAACUAGGAGCACCAUUUCGCUGCCAGUGAAGAAAUGAACAAAGAAAAUCUGGGCCAGGCAGGCAUCAAAAGAAAUAGUCUUGCGCUCAACCAGAAAGUCUGUAAUCAUUCUAAGGGUG [U132C A140G] | 1.79
GUUAACGGUCAUAGGCCAUGGAAACUAGGAGCACCAUUUCGCUGCCAGUGAAGAAAUGAACAAAGAAAAUCUGGGCCAGGCAGGCAUCAAAAGAAAUAGUCUUGCGCUCAACCAGAAAGUCUGUAAUCACUUUAAGGGCA [U130C U139C] | 1.09
GUUAACGGUCAUAGGCCAUGGAAACUAGGAGCACCAUUUCGCUGCCAGUGAAGAAAUGAACAAAGAAAAUCUGGGCCAGGCAGGCAUCAAAAGAAAUAGUCUUGCGCUCAACCAGAAAGUCUGUAAUCAUUAUAGGGGUA [U132A A135G] | 0.87
GUUAACGGUCAUAGGCCAUGGAAACUAGGAGCACCAUUUCGCUGCCAGUGAAGAAAUGAACAAAGAAAAUCUGGGCCAGGCAGGCAUCAAAAGAAAUAGUCUUGCGCUCAACCAGAAAGUCUGUAAUCAUCUUAAGGGCA [U131C U139C] | 0.46
GUUAACGGUCAUAGGCCAUGGAAACUAGGAGCACCAUUUCGCUGCCAGUGAAGAAAUGAACAAAGAAAAUCUGGGCCAGGCAGGCAUCAAAAGAAAUAGUCUUGCGCUCAACCAGAAAGUCUGUAAUCAUCUUAAGGGAA [U131C U139A] | 1.84
GUUAACGGUCAUAGGCCAUGGAAACUAGGAGCACCAUUUCGCUGCCAGUGAAGAAAUGAACAAAGAAAAUCUGGGCCAGGCAGGCAUCAAAAGAAAUAGUCUUGCGCUCAACCAGAAAGUCUGUAAUCAUUCUUAGGGUA [U132C A134U] | 1.49
GUUAACGGUCAUAGGCCAUGGAAACUAGGAGCACCAUUUCGCUGCCAGUGAAGAAAUGAACAAAGAAAAUCUGGGCCAGGCAGGCAUCAAAAGAAAUAGUCUUGCGCUCAACCAGAAAGUCUGUAAUCAUAUUAAGGCUA [U131A G138C] | 1.83
GUUAACGGUCAUAGGCCAUGGAAACUAGGAGCACCAUUUCGCUGCCAGUGAAGAAAUGAACAAAGAAAAUCUGGGCCAGGCAGGCAUCAAAAGAAAUAGUCUUGCGCUCAACCAGAAAGUCUGUAAUCAUAAUAAGGGUA [U131A U132A] | 0.14
GUUAACGGUCAUAGGCCAUGGAAACUAGGAGCACCAUUUCGCUGCCAGUGAAGAAAUGAACAAAGAAAAUCUGGGCCAGGCAGGCAUCAAAAGAAAUAGUCUUGCGCUCAACCAGAAAGUCUGUAAUCAUAUAAAGGGUA [U131A U133A] | 0.95
GUUAACGGUCAUAGGCCAUGGAAACUAGGAGCACCAUUUCGCUGCCAGUGAAGAAAUGAACAAAGAAAAUCUGGGCCAGGCAGGCAUCAAAAGAAAUAGUCUUGCGCUCAACCAGAAAGUCUGUAAUCAUCUUAAAGGUA [U131C G136A] | 0.88
GUUAACGGUCAUAGGCCAUGGAAACUAGGAGCACCAUUUCGCUGCCAGUGAAGAAAUGAACAAAGAAAAUCUGGGCCAGGCAGGCAUCAAAAGAAAUAGUCUUGCGCUCAACCAGAAAGUCUGUAAUCAUGUUAAGGGUA [U131G] | 0.76
GUUAACGGUCAUAGGCCAUGGAAACUAGGAGCACCAUUUCGCUGCCAGUGAAGAAAUGAACAAAGAAAAUCUGGGCCAGGCAGGCAUCAAAAGAAAUAGUCUUGCGCUCAACCAGAAAGUCUGUAAUCAUCUUAAGGGUA [U131C] | 0.71
GUUAACGGUCAUAGGCCAUGGAAACUAGGAGCACCAUUUCGCUGCCAGUGAAGAAAUGAACAAAGAAAAUCUGGGCCAGGCAGGCAUCAAAAGAAAUAGUCUUGCGCUCAACCAGAAAGUCUGUAAUCAUAUUAAGGGUA [U131A] | 1.05
GUUAACGGUCAUAGGCCAUGGAAACUAGGAGCACCAUUUCGCUGCCAGUGAAGAAAUGAACAAAGAAAAUCUGGGCCAGGCAGGCAUCAAAAGAAAUAGUCUUGCGCUCAACCAGAAAGUCUGUAAUCAGUUUAAGGGUA [U130G] | 1.03
GUUAACGGUCAUAGGCCAUGGAAACUAGGAGCACCAUUUCGCUGCCAGUGAAGAAAUGAACAAAGAAAAUCUGGGCCAGGCAGGCAUCAAAAGAAAUAGUCUUGCGCUCAACCAGAAAGUCUGUAAUCAUCUAAAGGGUA [U131C U133A] | 0.91
GUUAACGGUCAUAGGCCAUGGAAACUAGGAGCACCAUUUCGCUGCCAGUGAAGAAAUGAACAAAGAAAAUCUGGGCCAGGCAGGCAUCAAAAGAAAUAGUCUUGCGCUCAACCAGAAAGUCUGUAAUCAUAUUUAGGGUA [U131A A134U] | 0.77
GUUAACGGUCAUAGGCCAUGGAAACUAGGAGCACCAUUUCGCUGCCAGUGAAGAAAUGAACAAAGAAAAUCUGGGCCAGGCAGGCAUCAAAAGAAAUAGUCUUGCGCUCAACCAGAAAGUCUGUAAUCAUUCUAUGGGUA [U132C A135U] | 2.17
